Source: patent US20260193356A1

B1: B21A06-N297A (antibody, human IgG1, V domains shown)
VH: QVQLQESGGDVVQPGRSLRLSCAASGFTFNNYGMHWVRQAPSKGLEWVAFIWYDGSNKYYGDSVKGRFTISRDNSKNTLYLQMNSLRAEDTALYYCARGDNWNSDAFDIWGPGTMVTVSS
VL: EIVMTQSPLSLPVTLGQPASISCRSSQSLVYTNGNTYLNWFQQRPGQSPRRLIYKVSSRDSGVPDRFSGSGSGTDFTLKISRVAAEDVGLYYCMQGTHWPLTFGGGTKVEIK
B2: B20B02-N297A (antibody, human IgG1, V domains shown)
VH: QVQLQQSGGGVVQPGRSLRLSCAASGFTFSTYGMHWVRQAPGKGLEWVAALSFDGGNIYYGDSVKGRFTISRDNSKNTLYLQMNSLRAEDTALYYCAKARLPYSYDAVDYWGQGTLVTVSS
VL: EIVMTQSPATLSVSPGERATLSCRASQSVSSNLAWYQQKPGQAPRLLIYDTSTRAIGIPARFSGSGSGTEFTLTISSLQSEDFAIYYCHQYNFWPPITLGQGTRLEIK
B3: B22E02-N297A (antibody, human IgG1, V domains shown)
VH: QVQLVQSGGGLVQPGRSLRLSCRASGFTFDGYSMNWVRQAPGKGLEWVGFIRSKGYGGTSESAASVKGRFTISRDDSKSIAYLQMNSLKTEDTAVYYCTRTRNWNDEGYFDYWGLGTLVTVSS
VL: DIQMTQSPSSLSASVGDRVTITCQASQDINKYLNWYQQKPGKAPKLLIYDASNSETGVPSRFSGSGSGTDFTFTISSLQPEDISTYYCQQYDILPITFGQGTRLEIK

Columns and labels:
[1] = target: dog (Canis lupus) PDL1 (dPDL1) expressed on CHO-S cells (CHO-S-dPDL1) (dog (Canis lupus)); test: flow cytometry on CHO-S-dPDL1 cells; antibody 1 µg/mL
Chain of dog (Canis lupus) PDL1 (dPDL1) expressed on CHO-S cells (CHO-S-dPDL1) (dog (Canis lupus)) (chain, as listed by the source limits assumed, form in doubt): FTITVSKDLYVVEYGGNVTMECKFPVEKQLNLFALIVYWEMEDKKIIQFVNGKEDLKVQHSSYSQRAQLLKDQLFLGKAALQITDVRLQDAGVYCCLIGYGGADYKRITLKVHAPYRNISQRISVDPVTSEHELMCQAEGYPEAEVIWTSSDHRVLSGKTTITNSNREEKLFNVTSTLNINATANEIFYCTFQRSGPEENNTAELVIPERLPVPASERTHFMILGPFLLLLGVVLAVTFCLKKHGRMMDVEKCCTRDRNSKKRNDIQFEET

[2] = target: dog (Canis lupus) PDL1 (dPDL1) expressed on CHO-S cells (CHO-S-dPDL1) (dog (Canis lupus)); test: flow cytometry on CHO-S-dPDL1 cells; antibody 0.1 µg/mL

Row | Binder | Percentage of Positive Cells (%) [1] [%] | Percentage of Positive Cells (%) [2] [%]
1 | B1 | 62.5 | 50.5
2 | B2 | 70.7 | 53.1
3 | B3 | 67.8 | 51
